Test [1] deals with T1, human c-Met/Fc fusion protein (R&D Systems) (human, UniProt P08581 25-932).
T1 construct: Bought reagent; also called human c-Met/Fc protein; not shown: Fc part of the bought fusion
As to the kind of experiment: ELISA, human c-Met/Fc coated at 2 ug/mL, hybridoma culture supernatant. As to the method: Human c-Met/Fc fusion protein was seeded in an amount of 50 μL (2 μg/mL)/well to microtiter plates and allowed to adhere to the surface of each well. The antibody that remained unbound was removed by washing.
The hybridoma cell culture obtained in Reference Example 1.1.2 was added in an amount of 50 μL to each well of the plates and incubated for 1 hour. The cells remaining unreacted were washed out with a sufficient amount of Tris-buffered saline and Tween 20 (TBST). Goat anti-mouse IgG-horseradish peroxidase (HRP) was added to the plates and incubated for 1 hour at room temperature. The plates were washed with a sufficient amount of TBST, followed by reacting the peroxidase with a substrate (OPD). Absorbance at 450 nm was measured on an ELISA reader.
(In an ELISA, binding on a coated surface is turned into a signal by an enzyme label.)

A further test addresses T2, EGFR (R&D Systems) (UniProt P00533 25-645, limits assumed).
T2 construct: also called epidermal growth factor receptor
Description: SPR, Biacore T100. Background: SPR reads the build-up and loss of mass on a sensor chip optically.

T1 sequence (P08581 25-932 limits assumed): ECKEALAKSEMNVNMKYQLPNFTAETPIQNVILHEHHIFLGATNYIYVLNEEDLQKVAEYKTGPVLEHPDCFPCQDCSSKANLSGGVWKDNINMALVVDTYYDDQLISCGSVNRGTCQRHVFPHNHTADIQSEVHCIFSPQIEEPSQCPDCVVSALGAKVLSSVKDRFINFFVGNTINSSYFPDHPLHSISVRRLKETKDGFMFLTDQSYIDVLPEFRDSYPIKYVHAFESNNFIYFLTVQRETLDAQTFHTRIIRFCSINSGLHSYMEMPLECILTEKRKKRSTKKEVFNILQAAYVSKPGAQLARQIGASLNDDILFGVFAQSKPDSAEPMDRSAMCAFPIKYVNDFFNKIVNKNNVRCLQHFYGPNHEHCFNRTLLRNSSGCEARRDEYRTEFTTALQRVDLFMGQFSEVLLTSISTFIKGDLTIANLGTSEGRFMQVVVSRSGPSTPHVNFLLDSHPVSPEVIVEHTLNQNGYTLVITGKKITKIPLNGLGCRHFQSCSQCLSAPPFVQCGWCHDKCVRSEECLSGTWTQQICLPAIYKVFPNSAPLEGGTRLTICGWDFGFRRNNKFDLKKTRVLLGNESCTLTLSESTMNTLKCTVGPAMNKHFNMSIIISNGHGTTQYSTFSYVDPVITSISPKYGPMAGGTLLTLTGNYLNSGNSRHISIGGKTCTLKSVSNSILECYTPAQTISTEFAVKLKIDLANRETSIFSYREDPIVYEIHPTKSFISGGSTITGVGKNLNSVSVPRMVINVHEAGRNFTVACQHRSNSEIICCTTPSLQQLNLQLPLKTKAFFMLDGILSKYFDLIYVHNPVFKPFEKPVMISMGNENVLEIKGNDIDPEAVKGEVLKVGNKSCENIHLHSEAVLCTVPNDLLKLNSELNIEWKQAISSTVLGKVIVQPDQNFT

B1: AbF46, mouse monoclonal antibody to c-Met (antibody, V domains shown)
VH: EVKLVESGGGLVQPGGSLRLSCATSGFTFTDYYMSWVRQPPGKALEWLGFIRNKANGYTTEYSASVKGRFTISRDNSQSILYLQMDTLRAEDSATYYCARDNWFAYWGQGTLVTVSA
VL: DILMTQSPSSLTVSAGEKVTMSCKSSQSLLASGNQNNYLAWHQQKPGRSPKMLIIWASTRVSGVPDRFIGSGSGTDFTLTINSVQAEDLAVYYCQQSYSAPLTFGAGTKLELK
notes: Screened as hybridoma culture supernatant; also called monoclonal antibody of hybridoma KCLRF-BP-00220
Turning to B1, in test [1], the binding result is “binds”.

B2: ME-19, bispecific anti-c-Met/anti-EGFR antibody (anti-c-Met antibody L3-1Y / anti-EGFR DARPin conjugate) (bispecific antibody, human IgG2, kappa)
heavy: EVQLVESGGGLVQPGGSLRLSCAASGFTFTDYYMSWVRQAPGKGLEWLGFIRNKANGYTTEYSASVKGRFTISRDNSKNTLYLQMNSLRAEDTAVYYCARDNWFAYWGQGTLVTVSSASTKGPSVFPLAPCSRSTSESTAALGCLVKDYFPEPVTVSWNSGALTSGVHTFPAVLQSSGLYSLSSVVTVPSSNFGTQTYTCNVDHKPSNTKVDKTVERKCCVECPPCPAPPVAGPSVFLFPPKPKDTLMISRTPEVTCVVVDVSHEDPEVQFNWYVDGVEVHNAKTKPREEQFNSTFRVVSVLTVVHQDWLNGKEYKCKVSNKGLPAPIEKTISKTKGQPREPQVYTLPPSREEMTKNQVSLTCLVKGFYPSDIAVEWESNGQPENNYKTTPPMLDSDGSFFLYSKLTVDKSRWQQGNVFSCSVMHEALHNHYTQKSLSLSPGKGGGGSGGGGSDLGKKLLEAARAGQDDEVRILMANGADVNADDTWGWTPLHLAAYQGHLEIVEVLLKNGADVNAYDYIGWTPLHLAADGHLEIVEVLLKNGADVNASDYIGDTPLHLAAHNGHLEIVEVLLKHGADVNAQDKFGKTAFDISIDNGNEDLAEILQ
light: DIQMTQSPSSLSASVGDRVTITCKSSQSLLASGNQNNYLAWYQQKPGKAPKMLIIWASTRVSGVPSRFSGSGSGTDFTLTISSLQPEDFATYYCQQSYSRPYTFGQGTKVEIKRTVAAPSVFIFPPSDEQLKSGTASVVCLLNNFYPREAKVQWKVDNALQSGNSQESVTEQDSKDSTYSLSSTLTLSKADYEKHKVYACEVTHQGLSSPVTKSFNRGEC
notes: also called c-Met/EGFR bsAb
Turning to B2, in the test with EGFR (R&D Systems), the Kd is roughly 350 pM.

Usually Kd stands for the concentration at which binding is half-saturated. Low values mean tighter binding, high ones weaker binding.
